Laboratory results: the nanobody polyreactivity screen of Harvey et al. (2022)

assay: yeast display, Sf9 membrane polyspecificity reagent, FACS + sequencing; frameworks hold sequencing errors
In short: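 In a synthetic yeast display library (Saccharomyces cerevisiae BJ5465), nanobody expression was induced with galactose for 36–48 hours. FACS gates were set low and high (top ~1%) using anti-HA fluorescence for expression and streptavidin fluorescence for binding of the Sf9 membrane reagent. Each polyreactivity label is drawn from the gate of origin.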

Sequence | polyreactivity (PSR sort gate)
QVQLVESGGGLVQEGGSLRLSCAASGRTFSRYVMGWYRQAPGKERELVAAIRGSGGGTYYADSVKGRFTISRDNAKNTVYLQMNSLKPEDTAVYYCNVVRSTVLYDYWGQGTQVTVSS | high polyreactivity
QVQLVESGGGLVQEGGSLRLSCAASGSIFGGYVMGWYRQAPGKERELVAAITSGGSTYYADSVKGRFTISRDNAKNTVYLQMNSLKPEDTAVYYCAKDYGDWGQGTQVTVSS | low polyreactivity
QVQLVESGGGLVQEGGSLRLSCAASGSIFQYYALGWYRPAPGKERELVAAISSGGRTNYADSVKGRFTISRDNAKNSVYLQMNSLKPEDTAVYYCAAARYYYQVYRWEYDYWGQGTQVTVSS | high polyreactivity
QVQLVESGGGLVQEGGSLRLSCAASGSIFRFYVMGWYRQAPGKERELVAAISIGGSTNYADSVKGRFTISRDNAKNTVYLQMNSRKPEDTAVYYCAADDWYGAGLPHGTEFDYWGQGTQVTVSS | low polyreactivity
QVQLVESGGGLVQEGGSLRLSCAASGSIFRVNTMGWYRQAPGKERELVATISSGARTNYADSVKGRFTISRDNAKNTVYLQMNSLKPEDTAVYYCAADRSWGYPRWFTSRYDYWGQGTQVTVSS | high polyreactivity
QVQLVESGGGLVQEGGSLRLSCAASGSNLKGYAMGWYRQAPGKERELVARITRGGSTNYADSVKGRFTISRDNAKNTVYLQRNSLKPEDTAVYYCNKSGRWSARSASREVGDDYWGQGTQVTVSS | low polyreactivity
QVQLVESGGGLVQEGGSLRLSCAASGSTFAYNAKGWYRQAPGKERELVARISSSGDITYDADSVKGRFTISRDNAKNTVYLQMNSLKPEDTAVYYCAKRYLTRYKGYYYWGQGTQVTVSS | high polyreactivity
QVQLVESGGGLVQEGGSLRLSCAASGSTFDIYAMGWYRQAPGKERELVAAIRGRGGSTYYADSVKGRFTISRDNGKNTVYLQMNSLKPEDTAVYYCAADSYATRYYYWGQGTQVTVSS | high polyreactivity
QVQLVESGGGLVQEGGSLRLSCAASGSTFEYNAMGWYRQAPGKERELVADISWRGGGTYYADSVKGRFTISRDNAKNTVYLQMNSLKPEDTAVYYCNTVSRNGFYRTRHDYWGQGTQVTVSS | low polyreactivity
QVQLVESGGGLVQEGGSLRLSCAASGSTFHDNAMGWYRQAPGKERELVASITGSSGSTYYADSVKGRFTISRDNAKNTVYLQMNSLKPEDTAVYYCADEGSRWYYFFYGGGGYWGQGTQVTVSS | low polyreactivity
QVQLVESGGGLVQEGGSLRLSCAASGSTFHGYAMGWYRQAPGKERELVASISWSGGRTYYADSVKGRFTISRDNAKNTVYLQMNSMKPEDTAVYYCAAETGGLGGDYLGQGTQVTVSS | low polyreactivity
QVQLVESGGGLVQEGGSLRLSCAASGSTFWANAMGWYRQAPGKERELVAGITWNAGSTYYADSVKGRFTISRVDANNSVYLHMNSLKPEDTAVYYCAAFYHFQGWGPGYISWGQGTQVSVSS | low polyreactivity
QVQLVESGGGLVQEGGSLRLSCAASGTFYRYAMGWYRQAPGKERELVAAISRSGGSTYYADSVKGRFTISRDNAKNTVYLQMNSLKPEDTAVYYCAAYSRSFYLASLYDYWGQGTQVTVSS | high polyreactivity
QVQLVESGGGLVQEGGSLRLSCAASGYIFYYYAMGRYIQAPGKERELVAAISTSDTRTFYADSVKGRFTISRDNAKNTVYLQMNSRKPEDTAVYFCAASLYKGGPNYGYEYWGQGTQVTVSS | low polyreactivity
QVQLVESGGGLVQEGGSLRLSCAAYGRIFAPYSMGWYRQAPGKERELVAAITSGGSTNYADSVKGRFTISRDNAKNTVYLQMNSLKPEDTSVYYCASEASYNYVKYVVTYVYWGQGTQVTVSS | high polyreactivity
QVQLVESGGGLVQEGGSLRLSCASSGRIFDYYAMGWYRQAPGKESELVAAISSSVGNTYYADSVKGRFTISRDNAKNTVYFQMNRLKQEDTAVYYFADYSYVRSSYEVEYDYWGQGTQVTVSS | low polyreactivity
QVQLVESGGGLVQEGGSLRLSWAASGITFGGYAMGWYRQAPGKERELVAAISRGGGSTNYADSVKGRFTISLDNANNTVYLQMNSLKPEDTAVYYCNARRQNSRYDYWGQGTQVTVST | low polyreactivity
QVQLVESGGGLVQEGGSLSLSCAASGYIFYIYAMGWYRQAPGKERELVATISWSGGDTYYADSVKGRFTISRDNANNTVYLQMNSLNPEDTAVYYCATEVGQSWAGDGDYEYWGQGTQVTVSS | low polyreactivity
QVQLVESGGGLVQGGGSLRLSCAASGFTFGRYTMGWYRQAPGKERELVAPISWSGGSTFYADSVKGRFTISRDNAQNTVYFQMNSLKPEDTAVYNCDTRLKSVSGGYNYWGQGTQVTVSS | high polyreactivity
QVQLVESGGGLVQGGGSLRLSCAASGSIFPHNAMGWSRQAPGKERELVASITSRGGITYYADSVKGRFTISRDNAKNPLNLQMNSLKPEDTAVYYCAADLYIYPYDYWGQGTQVTVSS | low polyreactivity
QVQLVESGGGLVQGGGSLRLSCAASGSIFTRNAMGWYRQAPGKEREFVAAISSSGVSTYYADSVKGRFTISRDNAKNTVYLQMNSLKPEDTALYYCAARWGTKSGRYDYWGQGTQVTVSS | high polyreactivity
QVQLVESGGGLVQGGGSLRLSCASSGNTFYYYAMGWYRQAPGKERELVAAITRGGSTNYADSVKGRFTISRDNAKNTVYLEMISLKPEDTSVYYCAAEQRAPRFADYDYWGQGTQVTVSS | low polyreactivity
QVQLVESGGGLVQLGGSLRLSCAASGSIIFSYAIGWSRQAPWKERELVADNRSSDDDTYYADSVKGRFTISRDNAQNTDYLDMNSLKPEDTGGYYCNADFGYWWDGRRYDYWVQGTQVTVSS | low polyreactivity
QVQLVESGGGLVQPGCSLRLSCAASGSTFESYAMGWYRQAPGKERELVAAISWRVGSTYYADSVKGRFTISRDNAKNTVYLQMNSLKPEDNAVYYCASKGWYSHYGGYDYWGQGTQVTVSS | low polyreactivity
QVQLVESGGGLVQPGGSLRLRCAASGSTLAYYTMGWSRHAPGKEMELVAAISGSGGSTYYADSVKGRFTIARDNAKNTVYLQMNSLKPEDSAVYYSIAVLYYYTSSEYDYWGQGTQVTVSS | high polyreactivity
QVQLVESGGGLVQPGGSLRLSCAASGFIFGYYTMGWYRQAPGKERELVAVITSNGARTYYADSVKGRFTISRDNAKNTVYLQMNSLKPEDTAVYYCNAYRLSVSVGYDYWGQGTQVTVSS | high polyreactivity
QVQLVESGGGLVQPGGSLRLSCAASGFIFRNYAMGWYRQAPGQERELVAAITRSGDNTYYADSVKGRFTISRDNAKNTVYLQMNSLKPEDTAVYYCAARDVQYQQALGGDYWGQGTQVTVSS | low polyreactivity
QVQLVESGGGLVQPGGSLRLSCAASGFIFYYYAMGWYRQAPGKERELVAVLTESGSSTYYADSVKGRFTISRDNAKNTVYLQMNSLKPEDTAVYYCNADFWPYTGKYDYWGQGTQVTVSS | low polyreactivity
QVQLVESGGGLVQPGGSLRLSCAASGFTFSKYAMGWYRQAPGKERELVAAISRSAGSTYYADSVKGRFTISRDNAKNTVYLQMNSLKPEDTAVYYCARDNPRRPSGYNYWGQGTQVTVSS | high polyreactivity
QVQLVESGGGLVQPGGSLRLSCAASGIIFGSYAMGWYRQAPGKERELFAAITKSGGSTFYADSVKGRYTISRDNAKNTVYLQMNSLKPEDTAVYYCTAVKYRYLEYNYWGQGTQVTVSS | high polyreactivity
